assay: soluble on expression in E. coli; label from the status in PepcDB or PDB records

Sequence	soluble on expression in E. coli
MELTLHEARVIGCLLEKEVTTPEQYPLSLNALTLACNQKTSREPVLELTEAQVQDALDSLNKKRLISEQSGFGSRVVKYKHRFCNTEFSELQLSTAAVAIVCLLLLRGPQTPGELRTRSNRLHDFKDVLEVEACIKQLMERDKPVLTQLPREPGKRECRYTELFSQGSEQVSATSLSADSPSADSNSLNAQDRQQLEARVTQLEGQVAELKDKLESLIASLS	soluble
MELVATQDGFVGEMARGFTFQALGEVAAGFGKRLQAEGIPRVVVGHDARFLAREMAEHAAGVLGGLGLEVHLLQGPAPLPLFGFALRAKEAAGLYLTGSRRPFAFQGVKLRLGPGRPLPREGGGPRTPPSPGPFAPLEARRDYLDHLRKSAQGLALKRGVVYLDAMGGAGGGILGQVLKRLEAPVELRELHPLPHPLFYGVAPDPRPEHLRTLRLLLREAKPPALGLALDGDADRLGVYLPGGEALPGDQALARLREAAQGREVEALGEGAYRFPWHLEEPDPFLAALLLMGVLL	soluble
MELVHEIAIDPNFQIPDKPTNAIQRCVQESMHKAYYNQLRRDLAKDPPELEYCFSFLMEVKTMILDDILTAQHTRLKAEINSMLDETALRGKLDQGQLDIKKVMKYIVDLCSRLCSPARDVKVAELRTRTDVIDIFEGTMDLLELMKNDLTNYQISQNRAAIEEYSSKHEYDMFQKFLIENPNGCYFARQWLKAAYDELFEKKLDAEGEETSVKKERKNEDTDTVLIDTTSRGYTKLIQVNEYDGFPETLKIDKIKIELLAEKFLQIVMCASSVFVTCNVAGKQISESADFKKTLKDHLIVITNNTDEERIKSDLEKIGEQCVKEAVDTSKKLNIEWNTESSTSIRNQINALISSDNPIRKLVHTRVSTFVEEMLRSPTSVPHRLLPGLSVIQSELCAFTSKFLRLCVHNRKTFYAMYSNLIQEFQGHTPSTHAIYRADSPSSMPGPSTSA	not soluble
MEMKNVKGTKDYLPEEQVLRNKIKRACEDTFERYGCKPLETPTLNMYELMSYKYGGGDEILKEIYTLQDQGKRNLALRYDLTIPFAKVVAMNPNIRLPFKRYEIGKVFRDGPIKQGRFREFIQCDVDIVGVESVMAEAELMSMAFELFRTLNLEVTIQYNNRKLLNGILESINIPTERTSDVILSLDKIEKIGIDGVRKDVLERGISEEMADTICNTVLSCLKLTIADFKEAFNNPLVADGVNELQQLQQYLIALGINENAIFNPFLARGLTMYTGTVYEIFLKDGSITSSIGSGGRYDNIIGAFRGDNMNYPTVGISFGLDVIYTALSQKETISSTADVFIIPLGTELQCLQIAQQLRSTTSLKVELELAGRKLKRALNYANKENIPYVLIIGEDELSTETVVLRNMKEGSEVKVPLSSLKDNTFNNYCNIPIKL	soluble
MEMSHRSSYFQSIIDEAGSLLRELMNIPDEYEVLFLQGGASLQFSMIPLNLMNTYKKAGYVLTGSWSKKALQEAEKVGEVQVIASSENEKFTTIPKLDGLLGDEKLDYVHITTNNTIEGTKYVDIPHVDKVPLVADMSPNILSERYDVSKFGLIYAGAQKNLGPAGLTIAIIKRDLIGGADRYCPTMLNYETYSKNNSLYNTLPSFSIYVTKLVLEWLKEQGGVSAIEEQNKMKSSLLYNFLDESKLLTSPVDPAYRSLMNIPFTTPSEELNNEFLQKAKERGLVTLKGHRSVGGMRASIYNAMPVQGVQQLVNYMKEFELENR	not soluble
MENDLKKLTKEIVGRLKNKSVKELLSYAIFNEEEEAKFYADLAEKVSRPSVKALFRRMSEESKVHELLLRKLFSKYFPGEEPVKVDVPPVEVVPFISKFESIEDYLEGLRYCMESELFAKRTYVLLSQVAENEGVRMVANELASIEQNHYEEIKAVYELVKTFRDREMLPESLKSGAYLITNESVGKYLILDLIDENKKLKLFVRENPEIFRRLIGENPNVEITWIAKVNAPNTISPTETHVLKKDIESFFEKVTKEGKKGVVFIQNVAYLVANLGFKETVDLLLHAKDLAVYYGGYLIITANPEVFEKTEWALLKLEFEVLF	not soluble
MENEVVFFCRKCNHHLFAKNPMINTLKVISEMDCPNCGEEGYHNWILSHIGDSEKEKENYNWKLEHHHHHH	soluble
MENFIDTLENWRDQKQIISVICKDGIKIDDSIITSFKASKDVGISNGLRIQLTFQEINFKAIVGQTDVSAATGRTSTTNDGGATSKKNTGNTTTSLGSPMLTCKELFSYSASELSDEALKARVTCSKSVSVKNGESTFTA	not soluble
MENILDYNEAELKQWMDKNGEKTFRAKQFFDWIYNGTFDFKDMKNLPQSTRERLEKNFYIGMPSVVKRLNSKKGDTVKFLFRYNDGNIIECVVMKYDYGNSICISTQVGCRMGCSFCASTIGGRVRDLTSGEILAQILKAQKEIGERISNIVLMGSGEPLDNYDNVIKFIRIVNSEKGLNIGQRHITLSTCGIVPRIYDLMKENLQITLAISLHASDDETRKKIMPIANRYSISEIIDCCKKYSDFTGRRITFEYSLVKDVNDDKESAKKLGELLSGMLCHVNLIPVNTVNETSYEKPESSKIKKFCDTLLKYKIESTIRKEMGADINAACGQLRRNYIEESEGK	not soluble
MENKSIAIFIDAENIPAKYAKSIFDIASDYGEVIIKRIYGDWTQKNIQGWREQIAEYSLIAMQQFNFAANKNSSDMYLITEIMSIFYEKNIDIFVIVSSDSDYTSLIQKLRENKKQVIGMGLEKSIKSYVNAFSEFFYLDKDESKKEDILSKDYLRALINITEQLIDEKGRAEYAQIRTNMNRKYSDFHPQNYGFKNFRALIQKFLPKMKKFEEEREKNIYFLVKKDYESYYLEHHHHHH	not soluble
MENTENSVDSKSIKNLEPKIIHGSESMDSGISLDNSYKMDYPEMGLCIIINNKNFHKSTGMTSRSGTDVDAANLRETFRNLKYEVRNKNDLTREEIVELMRDVSKEDHSKRSSFVCVLLSHGEEGIIFGTNGPVDLKKITNFFRGDRCRSLTGKPKLFIIQACRGTELDCGIETDSGVDDDMACHKIPVDADFLYAYSTAPGYYSWRNSKDGSWFIQSLCAMLKQYADKLEFMHILTRVNRKVATEFESFSFDATFHAKKQIPCIVSMLTKELYFYH	soluble
MEPHKVVPLSKPHPPVVGKVTHHSIELYWDLEQKEKRQGPQEQWLRFSIEEEDPKMHSYGVIYTGYATRHVVEGLEPRTLYKFRLKVTSPSGEYEYSPVVSVATTRE	soluble
MEPLMNQSLHICGCCKRELPHEAFYTNKRTGTLDNYCKECRKANTRKRRDLRRCTSFENKPVSYPVITEVKDPALRMLLILHARQVVAESISRKQEKEKLNTLWEE	not soluble
MEPLSHRGLPRLSWIDTLYSNFSYGTDEYDGEGNEEQKGPPEGSETMPYIDESPTMSPQLSARSQGGGDGVSPTPPEGLAPGVEAGKGLEMRKLVLSGFLASEEIYINQLEALLLPMKPLKATATTSQPVLTIQQIETIFYKIQDIYEIHKEFYDNLCPKVQQWDSQVTMGHLFQKLASQLGVYKAFVDNYKVALETAEKCSQSNNQFQKISEELKVKGPKDSKDSHTSVTMEALLYKPIDRVTRSTLVLHDLLKHTPVDHPDYPLLQDALRISQNFLSSINEDIDPRRTAVTTPKGETRQLVKDGFLVEVSESSRKLRHVFLFTDVLLCAKLKKTSAGKHQQYDCKWYIPLADLVFPSPEESEASPQVHPFPDHELEDMKMKISALKSEIQKEKANKGQSRAIERLKKKMFENEFLLLLNSPTIPFRIHNRNGKSYLFLLSSDYERSEWREAIQKLQKKDLQAFVLSSVELQVLTGSCFKLRTVHNIPVTSNKDDDESPGLYGFLHVIVHSAKGFKQSANLYCTLEVDSFGYFVSKAKTRVFRDTAEPKWDEEFEIELEGSQSLRILCYEKCYDKTKVNKDNNEIVDKIMGKGQIQLDPQTVETKNWHTDVIEMNGIKVEFSMKFTSRDMSLKRTPSKKQTGVFGVKISVVTKRERSKVPYIVRQCVEEVEKRGIEEVGIYRISGVATDIQALKAVFDANNKDILLMLSDMDINAIAGTLKLYFRELPEPLLTDRLYPAFMEGIALSDPAAKENCMMHLLRSLPDPNLITFLFLLEHLKRVAEKEPINKMSLHNLATVFGPTLLRPSEVESKAHLTSAADIWSHDVMAQVQVLLYYLQHPPISFAELKRNTLYFSTDV	soluble
MEPVTSSEREAELERELDLLRKELNIEQKMNSELKRLMIATLSDELQGQVEALTEDKVRLAHRVDEYMGKLMVEDEESDRLRIDRDVWKCKFLAQSIRCDELTSKNEYLLKTLVGIQQAVKTKNVTSDEISDFTQLDLQPLFHRSPCEERVRPITAKYTNLTIACCKNCMGRDIQLL	not soluble
MEQDDPSGEWPLIAALPVRQDVPVDALLADVAAQLAAEGLRTAGFLQRDGVRLEDLTSGALYPITQDLGPGSSGCRLDPAGLALAAAAGLAALERGADLLVIPRFGKAEIEGEGMRGVIGRACELGVPTLVGVRQSAEPAWETFAGGLAEWIAPERQAVAGWCRTACAPVRCRTLEHHHHHH	not soluble
MEQETLEQVHLTEDGGVVKTILRKGEGGEENAPKKGNEVTVHYVGKLESSGKVFDSSRERNVPFKFHLGQGEVIKGWDICVASMTKNEKCSVRLDSKYGYGEEGCGESIPGNSVLIFEIELISFRE	soluble
MEQKFCQSCGMPLNPEVLGTEKDGSKNEEYCTYCYADGHFTVECTMDEMINQCAQFVDEFNKGSEVKMTKEEAIANMKQFFPMLKRWKQ	not soluble
MEQKTENKWPLQFEVIEEIKQVGRWSAPSWRLGDIHLYEKVNETQDNVSLFERDLEIFRDERTDYRFNLSSQDPKLFFAFENDNDQLTPVMITASQSMIGQYMDGDYLVLSTAMPLPMQAWLEAYIGKHGELLEVRKKKRKGAGRASEQLPK	not soluble
MEQLKKQVCDYIESHEEESVKFLKRLIQEKSVSGDESGAQAIVIEKLRELGLELDIWEPSFSKMKDHPYFVSPRTSFSDSPNIVATLKGSGDGKSMILNGHIDVVPEGDVNQWEHHPYSGEKIGNRIYGRGTTDMKGGNVALMLAMEAIIESNIELKGDIYFQSVIEEESGGAGTLATILRGYKADGVIIPEPTNMKFFPKQQGSMWFRLRVKGKAAHGGTRYEGVSAIEKSMFVIEHVRKLEEKRNSRITDPLFKEIPIPIPINIGKIEGGSWPSSVPDELILEGRCGVAPNETIEAAKEEFENWIAELNDVDNWFVENPVEVEWFGARWVPGELEENHELITTLHHNFVEIEGNEPIIEASPWGTDGGLFTQIANVPTIVFGPGETKVAHYPNEYIEVDKMIAAAKIIACTLLDWCEVKK	not soluble
MEQQPQLNDHNKQEYPPMHTAEHLLNATMVKTFGCPRSRNAHIERKKSKCDYILPTCPTDAEIQAIEDKVNEVISQNLPVTVEFMTHEQAKGIVDLSKLPADASETLRIIRIGDYDACACIGLHVSNTSEVGTFKIISHDYNEERQTLRLRFKLIEKK	not soluble
MEQSFTADINEINITNGKLDFSDSSLTPKFSAGIYSLNGDITGLSSNEDSRAKIDLKGKVDKYAPVIIKGSVNPLSHDAFTDIDMLFNGIELTTFTPYSGKFAGYAIDKGKLSLGLNYKLSNNKLVAENNVTLDQLTLGEVVNSEEATSLPIKFALSLLKDSDGLEHHHHHH	soluble
MERAHRIDLKLLRYFLAVAEELHFGRAAARLNMSQPPLSIHIKELEQQLGTLLFIRHSRSVALTHAGKVLMEESRRLLASANQALARVEQIGRGEAGRIELGVVGTALWGRMRPAMRHFLKANPNVEVLFREKSPGMQMALLERRELDAGIWRMAIEPAVGFTSIRLHESAFMVAVPEDHDLASRDSVPLAALRNEYFVTLPSVHSDWGFLQRVCQQAGFSPMIIREVVEPQTVLAMISMGIGITLMADGYAQMSWPGVVFRPLEERIPADLYIVYDQQQATPALEKLVAALTV	not soluble

Reference: the DeepSol protein solubility set
